Laboratory results reported in paper PMC6327505, “Adaption to glucose limitation is modulated by the pleotropic regulator CcpA, independent of selection pressure strength”.

Target: T1, CcpA-Ile19 (evolved, 445C1) (Lactococcus lactis MG1363 (evolved …, UniProt A2RJC5 1-332, M19I))
T1 sequence: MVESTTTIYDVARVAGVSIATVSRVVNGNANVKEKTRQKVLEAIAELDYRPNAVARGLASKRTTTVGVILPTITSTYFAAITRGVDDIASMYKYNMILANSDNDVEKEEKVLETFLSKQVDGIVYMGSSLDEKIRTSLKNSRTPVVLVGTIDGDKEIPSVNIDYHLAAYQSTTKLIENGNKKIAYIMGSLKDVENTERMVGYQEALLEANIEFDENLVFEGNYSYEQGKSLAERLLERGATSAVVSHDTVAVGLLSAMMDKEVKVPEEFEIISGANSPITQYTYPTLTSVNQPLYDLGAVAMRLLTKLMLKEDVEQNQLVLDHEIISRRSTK
Experiment: EMSA; 100-800 nM CcpA, 4 nM DNA; affinity increased vs Met19, least pronounced; EMSA: 20 mM Tris-HCl pH 8, 100 mM KCl, 10 mM MgCl2, 1 mM EDTA, 1 mM DTT, 5% glycerol, 40 ug/ml BSA, 4 nM Cy3-DNA, 30 C 20 min; 7.5% native PAGE in TBE
Conditions: protein: recombinant; tags: N-terminal 6xHis (pQE30); chain copies: 2; label: 5'-Cy3 on (+) strand; blunt

B1: mtlD cre (dsDNA)
DNA 1: ACCACAATGTAAAAGCTTACAATTGCT
DNA 2: AGCAATTGTAAGCTTTTACATTGTGGT
Does B1 bind?
Result: binds
